Test results: US20230183305A1, “KERATIN BD-11, PREPARATION METHOD THEREFOR AND PHARMACEUTICAL COMPOSITION AND USE THEREOF” (INSTITUTE OF MATERIA MEDICA, CHINESE ACADEMY OF MEDICAL …, priority 2019, published 2023)

Legend:
[1] = system: tracheal phenol red excretion in ICR mice; experiment: Expectorant test, phenol red excretion method in mice; assay type: in vivo, mouse; settings: for Phenol red excretion: X±SEM, n=10
Procedure: • Animals: male ICR mice; • Drugs and reagents: Mucosolvan (ambroxol hydrochloride tablets), phenol red, sodium bicarbonate, protein BD-11; • Instruments: centrifuge (Sigma-3K15 type), balance (XS105DU type), Microplate tester (BIO-TEK type).
Experiment grouping: • Solvent control group; • Mucosolvan 30 mg/kg group; • Protein BD-11, 20 mg/kg group, 50 mg/kg group.
The animals were fasted and water was taken freely 16 hours before the experiment. Orally administered Mucosolvan and different doses of protein BD-11 (administration volume 10 ml/kg) in groups, and the solvent control group was given the same volume of distilled water. One hour later, 2.5% phenol red solution was injected intraperitoneally. Mice were sacrificed by neck dislocation after 30 minutes. Take a trachea from below the thyroid cartilage to the branch of the trachea, and put the trachea into 3 ml 5% NaHCO3 solution and let it stand for 3 hours. Take 1 ml of the supernatant and centrifuge at 3000 rpm for 5 minutes. Measure and record the absorbance at 546 nm. According to the standard curve of phenol red, the excretion of phenol red was calculated.
Record the time point of oral administration, the time point of intraperitoneal injection of 2.5% phenol red solution, and the time point of taking the trachea respectively; The absorbance of each group of samples was measured by the microplate reader at 546 nm, Calculate the excretion of phenol red according to the standard curve of phenol red. Calculate the mean and standard error of the data in each group, and use TTEST to compare the solvent control group with other groups, and P<0.05 is considered as a significant difference.
Give Mucosolvan (30 mg/kg) and different doses of protein BD-11 (20 mg/kg, 50 mg/kg). One hour later, 2.5% phenol red solution was intraperitoneally injected, and 30 minutes later, the mice were sacrificed by neck dislocation. Take the trachea from below the thyroid cartilage to the branch of the trachea, put the trachea into 3 ml of 5% NaHCO3 solution and let it stand for 3 hours, take 1 ml of supernatant, centrifuge at 3000 rpm for 5 minutes, measure and record the absorbance at 546 nm. According to the standard curve of phenol red, the excretion of phenol red was calculated.

[2] = system: acetic acid writhing in ICR mice; experiment: Acetic acid writhing test in ICR mice; assay type: in vivo, mouse; settings: for Writhing incubation period: 0.6% acetic acid i.p.; for Writhing incubation period / Frequency of writhing: n=13; for Frequency of writhing: within 15 minutes
Procedure: • Animals: male ICR mice; • Drugs and reagents: aspirin, physiological saline, glacial acetic acid, protein BD-11.
Experiment grouping: • Model group; • Aspirin 300 mg/kg group; • Protein BD-11, 50 mg/kg group, 200 mg/kg group.
One day after the experimental animals adapt to the environment, Aspirin 300 mg/kg, protein BD-11 50 mg/kg, 200 mg/kg were given orally one hour in advance, and the administration volume was 10 ml/kg; Then, 0.6% acetic acid solution was injected intraperitoneally, and the incubation period (seconds) and frequency of writhing in the animal was observed within 15 minutes.
Calculate the mean and standard error of the data in each group. Compared with the model group by TTEST, P<0.05 was considered as statistically different.
One hour after oral administration of aspirin 300 mg/kg and different doses of protein BD-11 (50 mg/kg, 200 mg/kg), 0.6% acetic acid solution was intraperitoneally injected to observe the writhing incubation period and frequency of ICR mice.
0.6% acetic acid solution was injected into the abdominal cavity of mice, which caused deep and large area and long-term painful stimulation, causing the mice to writhe (the abdomen was contracted into an “S” shape, the trunk and hind legs were stretched, the buttocks were raised and creeping). The incubation time to start writhing and times of writhing in mice were used as the pain response indexs to determine whether the test sample had analgesic effect. […] Compared with the model group, P<0.05, which is statistically significant.

[3] = system: lipopolysaccharide (LPS) induced fever in SD rats; experiment: Lipopolysaccharide (LPS) induced fever model in SD rats; assay type: in vivo, rat; settings: for Body temperature 2 hours after modeling: 2 h after LPS 20 µg/kg i.p.; for Body temperature 2 hours after modeling / Body temperature 4 hours after modeling / Body temperature 6 hours after modeling / Body temperature 8 hours after modeling: n=8; for Body temperature 4 hours after modeling: 4 h after LPS 20 µg/kg i.p.; for Body temperature 6 hours after modeling: 6 h after LPS 20 µg/kg i.p.; for Body temperature 8 hours after modeling: 8 h after LPS 20 µg/kg i.p.
Procedure: • Animals: 230-260 grams of male SD rats; • Drugs: lipopolysaccharide (LPS, SIGMAL-2880), aspirin (SIGMA A2093), protein BD-11; • Instruments: electronic balance (SARTORIUS BP121S type), electronic clinical thermometer (CITIZEN CT-513W type).
Experiment grouping: • Normal control group; • Model group: lipopolysaccharide fever model; • Positive control group: Aspirin 300 mg/kg group; • Protein BD-11, 10 mg/kg group, 50 mg/kg group. Method: the method of intraperitoneal injection of Lipopolysaccharide to replicate rat fever model.
Preparation of experimental animals: After the experimental animals adapt to the experimental environment (temperature 22° C.±2° C., relative humidity 50%±2%) for 1 day. Pre-adaptation to measure rectal temperature at 8:00 and 15:00, rats were fasted and water was taken freely 12 h before experiment, and let the animal to empty its feces before measuring the rectal temperature. Apply petroleum jelly to the electronic thermometer probe before each temperature measurement. Insert the rat rectum 2 cm (can be marked at 2 cm to ensure that the depth of each insertion is consistent), and record the body temperature after the reading is stable.
Intraperitoneal injection of lipopolysaccharide to replicate rat fever model: The body temperature of the rats was measured before modeling. Qualified rats with a body temperature of 36.2-37.3° C. were selected and randomly divided into groups with 8 rats in each group. After oral administration of aspirin and different doses of protein BD-11, lipopolysaccharide (20 µg/kg, 2 ml/kg) was injected intraperitoneally immediately, and the normal control group was injected intraperitoneally with an equal volume of normal saline. The body temperatures of the rats were monitored after 2 hours for a total of 8 hours.
According to the body temperature measured at each time point on the day of the experiment, calculate the mean, standard deviation and standard error of the body temperature of each group of rats. The data of each group was compared with TTEST, and P<0.05 was considered as a significant difference.
Immediately after oral administration of aspirin (300 mg/kg), protein BD-11 (10 mg/kg, 50 mg/kg), intraperitoneal injection of 20 µg/kg lipopolysaccharide was performed to establish a model. The animal body temperature was monitored at 2 hours, 4 hours, 6 hours, and 8 hours after modeling.

B1: BD-11: recombinant keratin, amino acid sequence SEQ ID NO:1, expressed in E. coli, band around 59 kD; Example 4 batch tested (protein, listed as Bos taurus)
chain: MSRQSTITFQTSSRRGFSTASATTPATSRSRFSSASVTHSPAGSGGLGRISGFGSRSLYNLGGTKRVSISGCGSNFRSGFGGRASSGFGVSGGFGYGGGIGGGHGGCGFSVCPPGGIQEVTVNQSLLTPLNLQIDPNIQRVRKEEREQIKTLNNKFASFIDKVRFLEQQNKVLETKWSLLQEQGTRTVRQSLEPFFEAYITDLRRQLDSITTERGRLDAELRTMQDVVEDFKVRYEDEINKRTAAENEFVALKKDVDAAYLNKVDLEAKANSLTDEINFLQMLFEAELCQMQTRVSDTSVVLSMDNNRSLDLDSIIAEVKAQYEEIANRSRAEAESWYQTKYEELQVTAGQHGDDLRNTKQEISETNRMIQRLRAEIDNVKKQCASLQTAIADAEQRGELALKDARAKLVDLEEALQKSKQDMARLLREYQELMNIKLALDVEIATYRKLLEGEECRLSGEGVSPVNISVVTSTVSSGYGGGSSIGSGSLGLSGGSGCSFMTSGGHSLGGSSFSNSSSRGLGGSGSSFKFVSTTSSSRKSYKH
In the case of B1, the Phenol red excretion ([1]; BD-11 20 mg/kg oral) is reported as 0.670 ± 0.082 µg/mL, the “Excretion of phenol red vs solvent control group” value ([1]; BD-11 50 mg/kg dose group, P<0.05) is reported as “significantly increased the excretion of phenol red” and the Phenol red excretion ([1]; BD-11 50 mg/kg oral) is reported as 0.781 ± 0.043 µg/mL. For the same molecule, the “Expectorant effect (summary)” value ([1]; dose not given) was “obvious expectorant effect”, the Writhing incubation period ([2]; BD-11 50 mg/kg oral) was 163.8 ± 8.2 s and the Frequency of writhing ([2]; BD-11 50 mg/kg oral) was 35.0 ± 2.5 times. For the same molecule, the “Effect on number of writhing in mice” value ([2]; BD-11 200 mg/kg dose group, P<0.05 vs model group) was “significantly reduce the number of writhing”, the Writhing incubation period ([2]; BD-11 200 mg/kg oral) was 299.9 ± 65.2 s and the Frequency of writhing ([2]; BD-11 200 mg/kg oral) was 23.3 ± 3.1 times. The “Effect on number of writhing times in mice (summary)” value ([2]; dose not given) was “significantly reduce the number of writhing times”, the “Effect on increase in body temperature (summary)” value ([3]; 2, 4, 6 and 8 hours after modeling, dose not given) was “significantly inhibit the increase in body temperature” and the “Body temperature 2 hours after modeling” value ([3]; BD-11 10 mg/kg oral) was 37.2±0.2 °C. The “Body temperature 4 hours after modeling” value ([3]; BD-11 10 mg/kg oral) was 37.7 °C, the “Body temperature 6 hours after modeling” value ([3]; BD-11 10 mg/kg oral) was 37.6 °C and the “Body temperature 8 hours after modeling” value ([3]; BD-11 10 mg/kg oral) was 37.4±0.1 °C. For the same molecule, the “Body temperature 2 hours after modeling” value ([3]; BD-11 50 mg/kg oral) was 37.3 ± 0.1 °C, the “Body temperature 4 hours after modeling” value ([3]; BD-11 50 mg/kg oral) was 37.5 ± 0.2 °C and the “Body temperature 6 hours after modeling” value ([3]; BD-11 50 mg/kg oral) was 37.7 °C. For the same molecule, the “Body temperature 8 hours after modeling” value ([3]; BD-11 50 mg/kg oral) was 37.7±0.2 °C and the “Effect on body temperature of model rats” value ([3]; BD-11 10, 50 mg/kg oral, 2 hours after modeling) was “tendency to lower the body temperature of model rats 2 hours after modeling, but there is no statistically significant”.
